In US20240166705A1 one finds IC50 of dose dependent inhibition of KG-1 cell activation (induction of PD-L1 expression) by IL18BP data, which are given here for one substance.

Experiment [1] addresses XENP38865 (IL18×Fab-Fc fusion, IL18 4CS/K53A, silent Fv) (human). Briefly: cell-based or functional assay.
Experiment [2] deals with XENP37827 (IL18×Fab-Fc fusion with WT-4CS IL18 and a silent Fv) (human). Briefly: cell-based or functional assay.
Sequence of XENP37827 (IL18×Fab-Fc fusion with WT-4CS IL18 and a silent Fv) (human) (Q14116 other isoform, or with tags, fused parts or gaps): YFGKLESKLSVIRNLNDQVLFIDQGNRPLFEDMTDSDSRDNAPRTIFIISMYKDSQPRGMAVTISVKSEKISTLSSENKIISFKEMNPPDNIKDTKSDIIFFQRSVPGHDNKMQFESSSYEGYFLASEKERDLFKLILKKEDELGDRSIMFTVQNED

Sequence of XENP38865 (IL18×Fab-Fc fusion, IL18 4CS/K53A, silent Fv) (human) (Q14116 other isoform, or with tags, fused parts or gaps K53A K53A): as the sequence (Q14116 other isoform, or with tags, fused parts or gaps) above, with K53A counted along it

Regarding “IL18 binding protein (IL18BP) (from UniProt O95998 31-194)”, the IC50 of dose dependent inhibition of KG-1 cell activation (induction of PD-L1 expression) by IL18BP at fixed concentration (10 nM) of the IL18 fusion in experiment [1] was found to be 0.0887 µM; in experiment [2], 0.0055 µM.
